# Results: article PMC7946651, “The Recombinant Luciferase of the Fungus Neonothopanus nambi: Obtaining and Properties” (Doklady. Biochemistry and Biophysics, 2021)
# B1: recombinant N. nambi luciferase (nnLuz) (Neonothopanus nambi) (protein)
# chain: MRINISLSSLFERLSKLSSRSIAITCGVVLASAIAFPIIRRDYQTFLEVGPSYAPQNFRGYIIVCVLSLFRQEQKGLAIYDRLPEKRRWLADLPFREGTRPSITSHIIQRQRTQLVDQEFATRELIDKVIPRVQARHTDKTFLSTSKFEFHAKAIFLLPSIPINDPLNIPSHDTVRRTKREIAHMHDYHDCTLHLALAAQDGKEVLKKGWGQRHPLAGPGVPGPPTEWTFLYAPRNEEEARVVEMIVEASIGYMTNDPAGKIVENAK
# notes: expressed in Pichia pastoris GS115; membrane protein solubilized and purified in DDM
# Substrate: O=c1oc(/C=C/c2ccc(O)c(O)c2)cc(O)c1O
# Experiment: bioluminescence, initial light intensity, Michaelis-Menten fit
# Assay type: biochemical, Neonothopanus nambi
# Settings: 50 nM enzyme, 200 mM Na-phosphate pH 8.0, 500 mM Na2SO4, 0.1% DDM, room temperature, luciferin 2 nM to 50 μM
protein,measurement,value
B1,Km,1.09 ± 0.06 µM
